Experimental findings from the Immune Epitope Database (IEDB) are described below.

In one experiment the target is HLA-A*68:02. Kind of experiment: IEDB peptide-MHC binding, cellular MHC/competitive/fluorescence; ≥ and ≤ were set here for values at or beyond the usual limits of such assays.
Experiment [1] deals with HLA-A*02:01. Described as above. The settings on record: source organism: Vaccinia virus WR.
In another experiment the target is HLA-A*02:02. Description: IEDB peptide-MHC binding, purified MHC/competitive/radioactivity; ≥ and ≤ were set here for values at or beyond the usual limits of such assays.
Another experiment addresses HLA-A*02:06. Described as above.
For the next experiment, the target named is HLA-A*02:03. The experiment is described as above.
For experiment [2], the target named is HLA-A*02:01. Described as above.
The mark [3] stands for this setting: source organism: Vaccinia virus WR.
Where [4] appears, read: source organism: Hepacivirus hominis.

In the case of DQDTMLFASA, the concentration for half-maximal inhibition (IC50) with HLA-A*68:02 (setting [3]) came to 5660 nM; with HLA-A*02:01 [1], 7380 nM; with HLA-A*02:02 (setting [3]), 891 nM; with HLA-A*02:06 (setting [3]), 1720 nM; in the experiment with HLA-A*02:03 (setting [3]), 663 nM.

Regarding FTEEQQQSFM, the concentration for half-maximal inhibition (IC50) in the experiment with HLA-A*68:02 (setting [3]) was 8160 nM; with HLA-A*02:01 [1], 10100 nM; with HLA-A*02:02 (setting [3]) it was 1120 nM; with HLA-A*02:06 (setting [3]), 833 nM; with HLA-A*02:03 (setting [3]), 1750 nM.

Regarding GINNVQSLI, the half-maximal inhibitory concentration (IC50) stood at 30800 nM with HLA-A*68:02 (setting [3]); 11700 nM with HLA-A*02:01 [1]; 474 nM with HLA-A*02:02 (setting [3]); 1720 nM with HLA-A*02:06 (setting [3]); 378 nM with HLA-A*02:03 (setting [3]).

Consider GTKGKLYIA, for which the IC50 was at least 70000 nM with HLA-A*68:02 (setting [3]); 23300 nM with HLA-A*02:01 [1]; 1720 nM with HLA-A*02:02 (setting [3]); 2530 nM with HLA-A*02:06 (setting [3]); 56 nM with HLA-A*02:03 (setting [3]).

On to IISTDQDTML, for which the half-maximal inhibitory concentration (IC50) with HLA-A*68:02 (setting [3]) turned out to be 32400 nM; in the experiment with HLA-A*02:01 [1], 8570 nM; with HLA-A*02:02 (setting [3]) it was 451 nM; in the experiment with HLA-A*02:06 (setting [3]), 666 nM; in the experiment with HLA-A*02:03 (setting [3]), 1810 nM.

As to KIDILQMREI, the IC50 with HLA-A*68:02 (setting [3]) is at least 70000 nM; with HLA-A*02:01 [1], 6510 nM; with HLA-A*02:02 (setting [3]) it was 1280 nM; in the experiment with HLA-A*02:06 (setting [3]) it was 875 nM; with HLA-A*02:03 (setting [3]) it was 414 nM.

Take KIKQTGINNV: the IC50 in the experiment with HLA-A*68:02 (setting [3]) amounted to 35900 nM; with HLA-A*02:01 [1] it was 7300 nM; with HLA-A*02:02 (setting [3]) it was 237 nM; in the experiment with HLA-A*02:06 (setting [3]) it was 2550 nM; with HLA-A*02:03 (setting [3]), 3.1 nM.

Consider KVTVPTNDHI, for which the IC50 was 6590 nM in the experiment with HLA-A*68:02 (setting [3]); 13200 nM with HLA-A*02:01 [1]; 4720 nM with HLA-A*02:02 (setting [3]); 3600 nM in the experiment with HLA-A*02:06 (setting [3]); 1240 nM with HLA-A*02:03 (setting [3]).

Consider LQWDDNIPEL, for which the IC50 is 42700 nM in the experiment with HLA-A*68:02 (setting [3]); 9520 nM with HLA-A*02:01 [1]; 180 nM with HLA-A*02:02 (setting [3]); 34 nM with HLA-A*02:06 (setting [3]); 712 nM in the experiment with HLA-A*02:03 (setting [3]).

For MIGNYFSGVL, the IC50 in the experiment with HLA-A*68:02 (setting [3]) came out at 5620 nM; with HLA-A*02:01 [1] it was 5760 nM; in the experiment with HLA-A*02:02 (setting [3]), 712 nM; with HLA-A*02:06 (setting [3]), 1310 nM; with HLA-A*02:03 (setting [3]), 761 nM.

On to NIDSIMSMM, for which the concentration for half-maximal inhibition (IC50) with HLA-A*68:02 (setting [3]) is 11100 nM; with HLA-A*02:01 [1], 5140 nM; with HLA-A*02:02 (setting [3]) it was 25 nM; in the experiment with HLA-A*02:06 (setting [3]) it was 4720 nM; with HLA-A*02:03 (setting [3]) it was 874 nM.

As for NIKISLNEI, the IC50 with HLA-A*68:02 (setting [3]) is 20000 nM; with HLA-A*02:01 [1] it was 21000 nM; with HLA-A*02:02 (setting [3]), 1670 nM; in the experiment with HLA-A*02:06 (setting [3]), 1500 nM; with HLA-A*02:03 (setting [3]), 31 nM.

On to NITPDDGLGL, for which the half-maximal inhibitory concentration (IC50) with HLA-A*68:02 (setting [3]) amounted to 12600 nM; with HLA-A*02:01 [1] it was 6530 nM; with HLA-A*02:02 (setting [3]), 1910 nM; with HLA-A*02:06 (setting [3]) it was 3450 nM; with HLA-A*02:03 (setting [3]) it was 1290 nM.

For QLVFNSISA, the half-maximal inhibitory concentration (IC50) in the experiment with HLA-A*68:02 (setting [3]) amounted to 8220 nM; in the experiment with HLA-A*02:01 [1], 9420 nM; with HLA-A*02:02 (setting [3]), 4800 nM; in the experiment with HLA-A*02:06 (setting [3]), 3780 nM; in the experiment with HLA-A*02:03 (setting [3]) it was 1560 nM.

Turning to QLYTISSESL, the IC50 came to 6880 nM in the experiment with HLA-A*68:02 (setting [3]); 5290 nM in the experiment with HLA-A*02:01 [1]; 72 nM in the experiment with HLA-A*02:02 (setting [3]); 4740 nM in the experiment with HLA-A*02:06 (setting [3]); 245 nM with HLA-A*02:03 (setting [3]).

Regarding RLYDYFTRVT, the 50% inhibitory concentration (IC50) with HLA-A*68:02 (setting [3]) worked out at 7340 nM; with HLA-A*02:01 [1], 6110 nM; with HLA-A*02:02 (setting [3]), 2450 nM; with HLA-A*02:06 (setting [3]), 691 nM; in the experiment with HLA-A*02:03 (setting [3]), 551 nM.

Regarding RVLYDEFVT, the IC50 stood at 28000 nM with HLA-A*68:02 (setting [3]); 13500 nM in the experiment with HLA-A*02:01 [1]; 2170 nM with HLA-A*02:02 (setting [3]); 1720 nM with HLA-A*02:06 (setting [3]); 1410 nM in the experiment with HLA-A*02:03 (setting [3]).

As to VIPDELIDVL, the half-inhibitory concentration (IC50) came out at 9260 nM with HLA-A*68:02 (setting [3]); 33000 nM with HLA-A*02:01 [1]; 2490 nM with HLA-A*02:02 (setting [3]); 298 nM with HLA-A*02:06 (setting [3]); 4590 nM in the experiment with HLA-A*02:03 (setting [3]).

In the case of VLTHGLASV, the IC50 in the experiment with HLA-A*68:02 (source organism: SARS-CoV1) turned out to be 5420 nM; in the experiment with HLA-A*02:02 (source organism: SARS-CoV1) it was 9.6 nM; in the experiment with HLA-A*02:06 (source organism: SARS-CoV1), 1.4 nM; with HLA-A*02:03 (source organism: SARS-CoV1) it was 0.3 nM; with HLA-A*02:01 [2] (source organism: SARS-CoV1), 3.7 nM.

Take VLTSVDIETA: the half-maximal inhibitory concentration (IC50) with HLA-A*68:02 (setting [3]) was 11400 nM; with HLA-A*02:02 (setting [3]), 62 nM; with HLA-A*02:06 (setting [3]), 1410 nM; with HLA-A*02:03 (setting [3]), 421 nM; with HLA-A*02:01 [2] (setting [3]), 747 nM.

Take VLWTVFHGA: the IC50 with HLA-A*68:02 (setting [4]) is 34800 nM; with HLA-A*02:02 (setting [4]) it was 759 nM; with HLA-A*02:06 (setting [4]), 189 nM; in the experiment with HLA-A*02:03 (setting [4]) it was 836 nM; in the experiment with HLA-A*02:01 [2] (setting [4]), 100 nM.

Consider VMFNGVTFST, for which the 50% inhibitory concentration (IC50) is 13700 nM with HLA-A*68:02 (source organism: SARS-CoV1); 0.69 nM in the experiment with HLA-A*02:02 (source organism: SARS-CoV1); 131 nM with HLA-A*02:06 (source organism: SARS-CoV1); 75 nM with HLA-A*02:03 (source organism: SARS-CoV1); 8.5 nM with HLA-A*02:01 [2] (source organism: SARS-CoV1).

Turning to VMHINSPFKV, the IC50 with HLA-A*68:02 (setting [3]) amounted to 6270 nM; with HLA-A*02:02 (setting [3]) it was 60 nM; with HLA-A*02:06 (setting [3]), 393 nM; in the experiment with HLA-A*02:03 (setting [3]), 2.5 nM; with HLA-A*02:01 [2] (setting [3]), 13 nM.
